Experiments:
[1] = target: T1, insulin receptor extracellular domain (EC-IR) (UniProt P06213 28-956); assay: filter binding with RT-qPCR
[2] = target: T1, insulin receptor extracellular domain …; assay: ELASA

T1 sequence (P06213 28-956): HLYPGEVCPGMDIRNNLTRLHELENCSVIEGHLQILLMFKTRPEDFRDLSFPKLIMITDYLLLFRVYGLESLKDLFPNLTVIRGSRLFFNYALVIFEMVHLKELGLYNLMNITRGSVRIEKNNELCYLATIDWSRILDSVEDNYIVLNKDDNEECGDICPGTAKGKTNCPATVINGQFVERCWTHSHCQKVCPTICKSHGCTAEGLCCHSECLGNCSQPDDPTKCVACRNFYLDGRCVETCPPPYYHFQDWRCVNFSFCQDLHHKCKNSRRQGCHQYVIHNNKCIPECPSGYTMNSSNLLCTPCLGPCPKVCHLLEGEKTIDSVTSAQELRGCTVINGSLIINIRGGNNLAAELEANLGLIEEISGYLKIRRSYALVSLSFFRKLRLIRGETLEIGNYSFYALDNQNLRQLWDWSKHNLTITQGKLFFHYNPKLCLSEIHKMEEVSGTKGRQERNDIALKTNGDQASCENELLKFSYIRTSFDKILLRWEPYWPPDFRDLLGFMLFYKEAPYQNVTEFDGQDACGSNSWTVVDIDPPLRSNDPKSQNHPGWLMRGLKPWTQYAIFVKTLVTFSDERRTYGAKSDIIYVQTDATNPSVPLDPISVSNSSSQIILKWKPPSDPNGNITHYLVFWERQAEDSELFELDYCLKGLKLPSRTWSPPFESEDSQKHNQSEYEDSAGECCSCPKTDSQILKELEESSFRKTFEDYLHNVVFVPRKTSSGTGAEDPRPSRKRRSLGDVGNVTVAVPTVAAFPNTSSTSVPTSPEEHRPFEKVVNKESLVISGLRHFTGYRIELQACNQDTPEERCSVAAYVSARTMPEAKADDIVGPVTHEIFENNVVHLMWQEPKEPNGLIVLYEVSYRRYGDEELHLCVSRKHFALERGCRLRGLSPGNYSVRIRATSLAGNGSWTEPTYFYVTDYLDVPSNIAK

B1: GL56 (seq5/Gi-2) (XNA)
RNA: GGAGACAAGAAUAAACGCUCAAUGAUUUUGCAGCACUUCUUGUUAUCUUAACGAACUGUUGAUGAUUCGACAGGAGGCUCACAACAGGC
modifications: 2'-fluoro pyrimidines (all C and U), RNA purines
B1: binds [1].

B2: GL56 5'-biotin (printed as GL56.T in ELASA methods) (XNA)
RNA: B1 RNA
modifications: 2'-fluoro pyrimidines (all C and U), RNA purines
B2: binds [2].
